These sequences were tested against FGFR1 (UniProt P11362) (assay: phosphorylation enrichment, bacterial display (enrichment ratio); higher = better substrate or ligand; peptides without Tyr show the background).
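Also: 11-residue human phosphosite peptides and single-mutation variants displayed on the E. coli surface, counted by deep sequencing, each peptide's frequency after selection divided by its frequency in the unselected input library; frequency after pTyr selection over input frequency; kinase dosed for 20-30% of maximal phosphorylation in three min.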

FGFR1, sequence (P11362 whole entry, looked up): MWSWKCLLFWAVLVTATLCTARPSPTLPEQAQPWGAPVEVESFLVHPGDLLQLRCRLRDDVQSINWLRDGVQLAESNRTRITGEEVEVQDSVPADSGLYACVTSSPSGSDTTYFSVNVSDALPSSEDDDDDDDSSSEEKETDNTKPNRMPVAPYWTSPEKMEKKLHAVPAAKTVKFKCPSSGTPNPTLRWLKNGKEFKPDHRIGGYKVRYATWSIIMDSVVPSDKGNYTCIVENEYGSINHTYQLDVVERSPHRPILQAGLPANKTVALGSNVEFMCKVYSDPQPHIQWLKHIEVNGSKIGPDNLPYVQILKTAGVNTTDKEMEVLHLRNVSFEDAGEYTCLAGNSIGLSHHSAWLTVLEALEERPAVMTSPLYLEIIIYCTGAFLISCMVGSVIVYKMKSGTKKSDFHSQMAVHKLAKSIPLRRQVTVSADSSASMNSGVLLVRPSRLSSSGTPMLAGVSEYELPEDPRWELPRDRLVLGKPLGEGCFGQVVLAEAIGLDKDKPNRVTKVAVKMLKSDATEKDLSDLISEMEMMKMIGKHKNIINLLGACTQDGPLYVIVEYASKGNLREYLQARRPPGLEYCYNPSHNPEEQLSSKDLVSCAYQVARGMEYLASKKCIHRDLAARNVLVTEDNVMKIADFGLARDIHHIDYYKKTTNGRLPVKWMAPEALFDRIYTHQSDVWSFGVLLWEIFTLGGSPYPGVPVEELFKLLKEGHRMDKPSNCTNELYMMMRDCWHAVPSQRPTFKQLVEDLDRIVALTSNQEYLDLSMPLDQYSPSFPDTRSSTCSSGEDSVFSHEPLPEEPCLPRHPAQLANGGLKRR

Sequence	phosphorylation enrichment
GPKFVYDEIDN [ACOX1_Y232_G231V]	0.482
IVFVIYDEVVK [SLC25A1_Y297]	0.53
ASFGPYTRVQS [FOXL2_Y258_YF]	0.527
PLKYLYPNIDR [STAT1_Y668_K673R]	0.606
ANSSFYSTRSA [NUMA1_Y1836]	0.425
REHTVYWEPRK [MAGEA4_Y240_G241W]	2.31
RGRSTYFWPSP [GAGE12J_Y9_R13S_YF]	0.49
FDDIANIRKTL [PIK3CA_Y1021_Y1021N]	0.652
SRPTQYSSFAC [SPEM2_Y104_S108A]	0.482
VKFGAYINDFK [GLB1_Y488_N484K_YF]	0.466
LDFNEYFRFLN [HPRT1_Y198_D201Y_YF]	2.7
VNFGAYINNFK [GLB1_Y488_D491N_YF]	0.535
DLAGRYFALRS [CKB_Y173_K177R_YF]	0.447
MSPPGYKLLTG [GJA1_Y286_V289L]	0.515
VATRWYPSPEL [CDKL5_Y177_R178P]	0.437
FYRKVYHLASV [RBL1_Y796]	0.555
IYSGIYYKPES [L2HGDH_Y102_H98Y]	8.71
GGMAKYTRLHN [EHHADH_Y4_E3K]	0.39
KLRMEYLSLMH [NCKIPSD_Y660]	0.52
NFRTTYINANE [KCNH2_Y475_V476I]	0.528
TSRVLYPNDNF [PYGM_Y281_I276T]	0.545
DDPRRYQKFGF [OAS1_Y362_YF]	0.438
YSGLAYTMERS [GLUD1_Y512_H507Y]	0.463
LLQKTYNFNVL [SLC4A1_Y553_P548L_YF]	0.889
HGAGHYEDTIL [ALK_Y1604_P1599H]	0.787
PKSLFYLLLKP [TRPC6_Y775_L780P]	0.708
LEYAKYGSLRG [RET_Y809_V804L]	0.651
KNAEKYAEEDR [HSPA9_Y568]	0.47
QMEKIYTQQIQ [CCNB1IP1_Y125]	0.673

These sequences were tested against EPHB2 (UniProt P29323) in the same assay as above.
EPHB2, sequence (P29323 whole entry, looked up): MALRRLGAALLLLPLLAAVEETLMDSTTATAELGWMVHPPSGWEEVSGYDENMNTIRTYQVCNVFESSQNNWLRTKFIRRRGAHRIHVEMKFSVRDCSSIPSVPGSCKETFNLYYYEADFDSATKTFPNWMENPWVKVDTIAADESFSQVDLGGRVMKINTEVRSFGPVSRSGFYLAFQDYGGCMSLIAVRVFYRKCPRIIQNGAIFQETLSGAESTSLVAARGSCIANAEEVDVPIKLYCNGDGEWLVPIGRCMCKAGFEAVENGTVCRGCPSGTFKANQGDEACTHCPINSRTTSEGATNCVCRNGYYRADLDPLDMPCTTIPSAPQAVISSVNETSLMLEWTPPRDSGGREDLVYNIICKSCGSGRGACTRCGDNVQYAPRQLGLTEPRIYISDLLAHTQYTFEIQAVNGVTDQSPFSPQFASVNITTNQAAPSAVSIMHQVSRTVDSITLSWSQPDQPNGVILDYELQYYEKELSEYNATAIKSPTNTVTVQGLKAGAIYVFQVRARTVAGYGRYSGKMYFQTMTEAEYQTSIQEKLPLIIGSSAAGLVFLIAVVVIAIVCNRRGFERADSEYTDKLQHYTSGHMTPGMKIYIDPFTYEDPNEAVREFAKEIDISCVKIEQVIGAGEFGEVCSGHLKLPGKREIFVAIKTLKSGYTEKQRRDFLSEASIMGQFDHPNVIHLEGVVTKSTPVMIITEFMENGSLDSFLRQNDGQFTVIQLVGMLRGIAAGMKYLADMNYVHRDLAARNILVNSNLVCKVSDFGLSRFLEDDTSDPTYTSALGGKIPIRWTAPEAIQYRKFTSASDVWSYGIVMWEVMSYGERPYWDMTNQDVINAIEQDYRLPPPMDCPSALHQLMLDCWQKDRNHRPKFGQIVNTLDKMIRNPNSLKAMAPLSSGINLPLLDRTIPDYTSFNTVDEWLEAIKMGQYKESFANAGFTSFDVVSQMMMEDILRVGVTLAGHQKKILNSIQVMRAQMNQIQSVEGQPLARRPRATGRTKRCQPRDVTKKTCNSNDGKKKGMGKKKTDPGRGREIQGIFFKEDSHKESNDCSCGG

Sequence	phosphorylation enrichment
GPKFVYDEIDN [ACOX1_Y232_G231V]	0.556
IVFVIYDEVVK [SLC25A1_Y297]	2.01
ASFGPYTRVQS [FOXL2_Y258_YF]	0.381
PLKYLYPNIDR [STAT1_Y668_K673R]	0.819
ANSSFYSTRSA [NUMA1_Y1836]	0.365
REHTVYWEPRK [MAGEA4_Y240_G241W]	1.19
RGRSTYFWPSP [GAGE12J_Y9_R13S_YF]	0.621
FDDIANIRKTL [PIK3CA_Y1021_Y1021N]	0.452
SRPTQYSSFAC [SPEM2_Y104_S108A]	0.494
VKFGAYINDFK [GLB1_Y488_N484K_YF]	0.572
LDFNEYFRFLN [HPRT1_Y198_D201Y_YF]	0.924
VNFGAYINNFK [GLB1_Y488_D491N_YF]	0.635
DLAGRYFALRS [CKB_Y173_K177R_YF]	0.371
MSPPGYKLLTG [GJA1_Y286_V289L]	0.891
VATRWYPSPEL [CDKL5_Y177_R178P]	0.517
FYRKVYHLASV [RBL1_Y796]	0.566
IYSGIYYKPES [L2HGDH_Y102_H98Y]	15.9
GGMAKYTRLHN [EHHADH_Y4_E3K]	0.458
KLRMEYLSLMH [NCKIPSD_Y660]	0.609
NFRTTYINANE [KCNH2_Y475_V476I]	0.435
TSRVLYPNDNF [PYGM_Y281_I276T]	0.424
DDPRRYQKFGF [OAS1_Y362_YF]	0.425
YSGLAYTMERS [GLUD1_Y512_H507Y]	0.355
LLQKTYNFNVL [SLC4A1_Y553_P548L_YF]	0.984
HGAGHYEDTIL [ALK_Y1604_P1599H]	0.652
PKSLFYLLLKP [TRPC6_Y775_L780P]	0.569
LEYAKYGSLRG [RET_Y809_V804L]	2.96
KNAEKYAEEDR [HSPA9_Y568]	0.506
QMEKIYTQQIQ [CCNB1IP1_Y125]	0.466

These sequences were tested on c-Abl (mouse) in the same assay as above.

Sequence	phosphorylation enrichment
GPKFVYDEIDN [ACOX1_Y232_G231V]	0.652
IVFVIYDEVVK [SLC25A1_Y297]	0.888
ASFGPYTRVQS [FOXL2_Y258_YF]	0.449
PLKYLYPNIDR [STAT1_Y668_K673R]	1.09
ANSSFYSTRSA [NUMA1_Y1836]	0.644
REHTVYWEPRK [MAGEA4_Y240_G241W]	8.8
RGRSTYFWPSP [GAGE12J_Y9_R13S_YF]	0.711
FDDIANIRKTL [PIK3CA_Y1021_Y1021N]	0.813
SRPTQYSSFAC [SPEM2_Y104_S108A]	0.736
VKFGAYINDFK [GLB1_Y488_N484K_YF]	0.737
LDFNEYFRFLN [HPRT1_Y198_D201Y_YF]	1.6
VNFGAYINNFK [GLB1_Y488_D491N_YF]	0.535
DLAGRYFALRS [CKB_Y173_K177R_YF]	0.554
MSPPGYKLLTG [GJA1_Y286_V289L]	0.731
VATRWYPSPEL [CDKL5_Y177_R178P]	0.696
FYRKVYHLASV [RBL1_Y796]	0.416
IYSGIYYKPES [L2HGDH_Y102_H98Y]	23.7
GGMAKYTRLHN [EHHADH_Y4_E3K]	0.491
KLRMEYLSLMH [NCKIPSD_Y660]	0.8
NFRTTYINANE [KCNH2_Y475_V476I]	0.711
TSRVLYPNDNF [PYGM_Y281_I276T]	0.51
DDPRRYQKFGF [OAS1_Y362_YF]	0.418
YSGLAYTMERS [GLUD1_Y512_H507Y]	0.607
LLQKTYNFNVL [SLC4A1_Y553_P548L_YF]	0.77
HGAGHYEDTIL [ALK_Y1604_P1599H]	0.958
PKSLFYLLLKP [TRPC6_Y775_L780P]	1.31
LEYAKYGSLRG [RET_Y809_V804L]	1.73
KNAEKYAEEDR [HSPA9_Y568]	0.674
QMEKIYTQQIQ [CCNB1IP1_Y125]	1.03

What follows are sequences tested against EPHB1 (UniProt P54762) in the same assay as above.
EPHB1, sequence (P54762 whole entry, looked up): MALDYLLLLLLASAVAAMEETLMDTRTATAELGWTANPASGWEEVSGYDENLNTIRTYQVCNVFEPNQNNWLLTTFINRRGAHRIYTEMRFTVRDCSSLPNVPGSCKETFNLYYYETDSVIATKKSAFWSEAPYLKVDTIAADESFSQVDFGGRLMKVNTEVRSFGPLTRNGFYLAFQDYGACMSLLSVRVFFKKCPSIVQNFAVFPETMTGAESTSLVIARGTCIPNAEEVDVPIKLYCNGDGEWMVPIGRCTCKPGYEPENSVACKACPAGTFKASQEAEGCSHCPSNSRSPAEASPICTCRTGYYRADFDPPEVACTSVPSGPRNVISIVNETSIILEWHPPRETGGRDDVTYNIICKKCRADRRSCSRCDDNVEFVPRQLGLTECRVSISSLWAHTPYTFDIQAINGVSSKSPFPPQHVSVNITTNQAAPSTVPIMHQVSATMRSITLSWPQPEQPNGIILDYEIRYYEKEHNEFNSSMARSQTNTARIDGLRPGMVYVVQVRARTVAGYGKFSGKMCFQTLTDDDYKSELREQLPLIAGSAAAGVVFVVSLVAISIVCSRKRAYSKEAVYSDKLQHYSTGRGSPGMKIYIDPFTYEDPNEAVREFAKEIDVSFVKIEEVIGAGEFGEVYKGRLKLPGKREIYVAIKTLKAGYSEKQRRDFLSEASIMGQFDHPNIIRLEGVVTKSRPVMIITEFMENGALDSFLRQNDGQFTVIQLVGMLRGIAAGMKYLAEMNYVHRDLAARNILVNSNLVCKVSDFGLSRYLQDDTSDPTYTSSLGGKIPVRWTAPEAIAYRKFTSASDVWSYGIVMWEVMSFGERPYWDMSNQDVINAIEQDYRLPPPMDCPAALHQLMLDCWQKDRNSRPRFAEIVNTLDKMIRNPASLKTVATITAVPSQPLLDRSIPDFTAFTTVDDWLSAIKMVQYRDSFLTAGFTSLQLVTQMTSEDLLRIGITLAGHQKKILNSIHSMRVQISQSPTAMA

Sequence	phosphorylation enrichment
GPKFVYDEIDN [ACOX1_Y232_G231V]	0.505
IVFVIYDEVVK [SLC25A1_Y297]	1.9
ASFGPYTRVQS [FOXL2_Y258_YF]	0.524
PLKYLYPNIDR [STAT1_Y668_K673R]	0.579
ANSSFYSTRSA [NUMA1_Y1836]	0.405
REHTVYWEPRK [MAGEA4_Y240_G241W]	4.33
RGRSTYFWPSP [GAGE12J_Y9_R13S_YF]	0.468
FDDIANIRKTL [PIK3CA_Y1021_Y1021N]	0.525
SRPTQYSSFAC [SPEM2_Y104_S108A]	0.362
VKFGAYINDFK [GLB1_Y488_N484K_YF]	0.596
LDFNEYFRFLN [HPRT1_Y198_D201Y_YF]	0.592
VNFGAYINNFK [GLB1_Y488_D491N_YF]	0.566
DLAGRYFALRS [CKB_Y173_K177R_YF]	0.419
MSPPGYKLLTG [GJA1_Y286_V289L]	0.542
VATRWYPSPEL [CDKL5_Y177_R178P]	0.577
FYRKVYHLASV [RBL1_Y796]	0.447
IYSGIYYKPES [L2HGDH_Y102_H98Y]	14.1
GGMAKYTRLHN [EHHADH_Y4_E3K]	0.351
KLRMEYLSLMH [NCKIPSD_Y660]	0.524
NFRTTYINANE [KCNH2_Y475_V476I]	0.566
TSRVLYPNDNF [PYGM_Y281_I276T]	0.456
DDPRRYQKFGF [OAS1_Y362_YF]	0.376
YSGLAYTMERS [GLUD1_Y512_H507Y]	0.386
LLQKTYNFNVL [SLC4A1_Y553_P548L_YF]	0.909
HGAGHYEDTIL [ALK_Y1604_P1599H]	0.829
PKSLFYLLLKP [TRPC6_Y775_L780P]	0.759
LEYAKYGSLRG [RET_Y809_V804L]	3.25
KNAEKYAEEDR [HSPA9_Y568]	0.506
QMEKIYTQQIQ [CCNB1IP1_Y125]	0.747

Source: the supplement of paper PMC10065799, “High-throughput profiling of sequence recognition by tyrosine kinases and SH2 domains using bacterial peptide display” (eLife, 2023)
